From patent publication US20030199679A1

Experiments:
[1] = molecular target: recombinant human TNF-alpha (human) (UniProt P01375); experiment: standard assay of binding to human TNFα
[2] = molecular target: recombinant human TNF-alpha (human) (UniProt P01375); experiment: Scatchard analysis, 125I-TNF and unlabelled TNF in solution, antibody taken out with anti-IgG agarose beads

CDP571 (CDR-grafted CB0010, grafted light chain gEU and grafted heavy chain 2hEUg) (antibody)
Kd [1]: 0.087 nM | Kd [2]: 0.14 nM
